# Results from the supplement of paper PMC7877785.
# ± gives the uncertainty stated by the source.
# Experiment: self-splicing fitness, log relative to wild type (ln ratio); higher = more splicing; Tetrahymena group I intron in knt gene, E. coli kanamycin selection, DiMSum; sequences stand for … in CUCUCU…GGAGGGAAAAGUUAUCAGGCAUGCACCUGGUAGCUAGUCUUUAAACCAAUAGAUUGCAUCGGUUUAAAAGGCAAGACCGUCAAAUUGCGGGAAAGGGGUCAACAGCCGUUCAGUACCAAGUCUCAGGGGAAACUUUGAGAUGGCCUUGCAAAGGGUAUGGUAAUAAGCUGACGGACAUGGUCCUAACCACGCAGCCAAGUCCUAAGUCAACAGAUCUUCUGUUGAUAUGGAUGCAGUUCACAGACUAAAUGUCGGUCGGGGAAGAUGUAUUCUUCUCAUAAGAUAUAGUCGGACCUCUCCUUAAUGGGAGCUAGCGGAUGAAGUGAUGCAACACUGGAGCCGCUGGGAACUAAUUUGUAUGCGAAAGUAUAUUGAUUAGUUUUGGAGUACUCGUGGUCG
# In short: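 Fitness was computed with DiMSum as the error-weighted combination of replicate fold changes, kanamycin versus none, each normalised to wild type. The library randomised all eight intron nucleotides of the P1ex region, with the intron placed in the knt kanamycin-resistance gene on pET-22b(+) in E. coli BL21(DE3). Six replicate transformations were grown overnight at 37°C or 30°C on LB agar with or without 25 μg/mL kanamycin, plus 100 μg/mL carbenicillin, 50 μM IPTG and 0.2% rhamnose. Pooled colonies were amplicon-sequenced on an Illumina HiSeq 2500.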
Sequence,self-splicing fitness (ln) (30 °C),self-splicing fitness (ln) (37 °C)
GGGGAGCAAUAUUACGCUAU,-3.31 ± 0.36,-1.88 ± 0.38
GGGGAGCAAUAUUACGCUUG,-2.43 ± 0.17,-0.967 ± 0.18
GGGGAGCAAUAUUACGGUAC,,0.506 ± 0.25
GGGGAGCAAUAUUACGUCGA,0.294 ± 0.28,
GGGGAGCAAUAUUACGUGCU,-1.81 ± 0.16,-2.14 ± 0.33
GGGGAGCAAUAUUACGUGGC,-3.07 ± 0.48,-1.12 ± 0.47
GGGGAGCAAUAUUACGUGGG,-2.75 ± 0.32,
GGGGAGCAAUAUUACGUUAA,-2.53 ± 0.4,-1.95 ± 0.35
GGGGAGCAAUAUUACGUUUU,-3.04 ± 0.18,-2.86 ± 0.25
GGGUAGCAAUAUUACGACAU,-0.113 ± 0.015,0.159 ± 0.034
GGGUAGCAAUAUUACGACUA,-0.339 ± 0.1,0.878 ± 0.15
GGGUAGCAAUAUUACGAUAC,-1.98 ± 0.22,-0.628 ± 0.24
GGGUAGCAAUAUUACGAUGG,-2.86 ± 0.24,-2.65 ± 0.37
GGGUAGCAAUAUUACGAUUA,-0.341 ± 0.13,-0.00462 ± 0.1
GGGUAGCAAUAUUACGCAUC,-2.34 ± 0.29,-2.48 ± 0.24
GGGUAGCAAUAUUACGCCGU,-0.463 ± 0.2,0.576 ± 0.23
GGGUAGCAAUAUUACGCGUG,-0.787 ± 0.13,0.175 ± 0.12
GGGUAGCAAUAUUACGCUUA,-0.435 ± 0.15,-0.957 ± 0.13
GGGUAGCAAUAUUACGGCUU,-0.41 ± 0.11,0.232 ± 0.12
GGGUAGCAAUAUUACGUGUA,-0.214 ± 0.12,-0.897 ± 0.14
GGGUAGCAAUAUUACGUUAU,-3.17 ± 0.25,-1.33 ± 0.15
GGUAAGCAAUAUUACGAAUC,-0.515 ± 0.13,-0.339 ± 0.16

Sequence,self-splicing fitness (ln) (30 °C),self-splicing fitness (ln) (37 °C)
GGUAAGCAAUAUUACGAUCG,-0.894 ± 0.1,0.451 ± 0.17
GGUAAGCAAUAUUACGAUUG,-3.48 ± 0.48,-3.44 ± 0.39
GGUAAGCAAUAUUACGCGGA,-0.857 ± 0.18,-2.25 ± 0.2
GGUAAGCAAUAUUACGGCAC,-0.762 ± 0.096,-0.531 ± 0.15
GGUAAGCAAUAUUACGGGGC,-3.8 ± 0.32,-2.09 ± 0.31
GGUAAGCAAUAUUACGGUUA,-0.532 ± 0.12,-0.38 ± 0.096
GGUAAGCAAUAUUACGUAUA,-1.77 ± 0.21,-1.68 ± 0.26
GGUAAGCAAUAUUACGUCAA,-1.9 ± 0.26,-1.62 ± 0.2
GGUAAGCAAUAUUACGUGAC,-1.4 ± 0.076,-1.66 ± 0.12
GGUAAGCAAUAUUACGUGAG,-1.03 ± 0.079,0.0462 ± 0.09
GGUAAGCAAUAUUACGUGGA,-2.91 ± 0.21,-2.52 ± 0.2
GGUAAGCAAUAUUACGUUCG,-0.34 ± 0.15,-0.4 ± 0.18
GGUAAGCAAUAUUACGUUGA,-1.76 ± 0.21,-1.03 ± 0.15
GGUCAGCAAUAUUACGAAGG,-0.594 ± 0.14,-0.251 ± 0.22
GGUCAGCAAUAUUACGACAC,0.184 ± 0.32,-0.0653 ± 0.25
GGUCAGCAAUAUUACGACAU,0.0683 ± 0.013,0.148 ± 0.033
GGUCAGCAAUAUUACGACCA,-0.982 ± 0.16,-0.657 ± 0.23
GGUCAGCAAUAUUACGAGGC,-3.61 ± 0.3,-2.84 ± 0.43
GGUCAGCAAUAUUACGAUGC,-0.354 ± 0.091,0.43 ± 0.11
GGUCAGCAAUAUUACGCCCU,-0.704 ± 0.14,0.198 ± 0.17
GGUCAGCAAUAUUACGCGAU,-2.41 ± 0.18,
